Columns and labels:
Test in all cases: holdup assay
Design in all cases: key: below the threshold = too weak to quantify, mostly under pKd 3.1 to 4
[1] = target: LNX1_1, Q8TBB1
[2] = target: T1, PDZD7_3, Q9H5P4
T1 sequence (Q9H5P4 857-944, limits assumed, looked up): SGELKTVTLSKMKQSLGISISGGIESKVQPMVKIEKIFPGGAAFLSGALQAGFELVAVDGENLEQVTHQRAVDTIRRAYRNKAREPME

[3] = target: GRIP2_4, Q9C0E4
[4] = target: Inadl_8, Q8NI35
[5] = target: T2, TIAM2, Q8IVF5
T2 sequence (Q8IVF5 885-986, limits assumed, looked up): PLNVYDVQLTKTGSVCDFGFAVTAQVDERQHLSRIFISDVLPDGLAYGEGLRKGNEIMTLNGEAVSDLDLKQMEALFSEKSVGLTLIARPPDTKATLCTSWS

[6] = target: MAGI2_3, Q86UL8
[7] = target: DLG2_3, Q15700
[8] = target: T3, FRMPD1, Q5SYB0
T3 sequence (Q5SYB0 52-145, limits assumed, looked up): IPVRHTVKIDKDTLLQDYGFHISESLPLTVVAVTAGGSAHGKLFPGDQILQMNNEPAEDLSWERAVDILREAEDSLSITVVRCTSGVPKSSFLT

[9] = target: T4, DVL3, Q92997
T4 sequence (Q92997 244-331, limits assumed, looked up): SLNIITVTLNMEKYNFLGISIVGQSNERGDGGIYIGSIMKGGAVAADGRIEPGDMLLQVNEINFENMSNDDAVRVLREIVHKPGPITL

[10] = target: FRMPD2_1, Q68DX3
[11] = target: FRMPD4, Q14CM0
[12] = target: FRMPD2_2, Q68DX3
[13] = target: PDZRN4_1, Q6ZMN7
[14] = target: T5, SNTG2, Q9NY99
T5 sequence (Q9NY99 68-166, limits assumed, looked up): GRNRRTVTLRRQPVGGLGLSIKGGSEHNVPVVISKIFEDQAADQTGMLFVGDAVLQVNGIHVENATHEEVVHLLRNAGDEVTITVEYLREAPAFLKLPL

[15] = target: T6, SIPA1L2, Q9P2F8
T6 sequence (Q9P2F8 945-1036, limits assumed, looked up): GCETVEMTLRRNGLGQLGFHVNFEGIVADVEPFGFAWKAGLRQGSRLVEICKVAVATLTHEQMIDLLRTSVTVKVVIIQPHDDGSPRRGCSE

[16] = target: MAGI2_6, Q86UL8
[17] = target: T7, RAPGEF6, Q8TEU7
T7 sequence (Q8TEU7 525-625, limits assumed, looked up): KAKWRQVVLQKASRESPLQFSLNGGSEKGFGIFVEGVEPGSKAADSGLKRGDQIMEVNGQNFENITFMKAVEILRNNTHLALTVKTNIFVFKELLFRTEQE

[18] = target: T8, PTPN13_1, Q12923
T8 sequence (Q12923 1088-1188, limits assumed, looked up): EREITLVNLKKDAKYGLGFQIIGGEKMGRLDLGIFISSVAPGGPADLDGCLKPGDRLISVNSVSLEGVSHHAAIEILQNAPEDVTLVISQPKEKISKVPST

[19] = target: GRASP, Q7Z6J2
[20] = target: NHERF4_4, Q86UT5
[21] = target: T9, APBA3_1, O96018
T9 sequence (O96018 389-490, limits assumed, looked up): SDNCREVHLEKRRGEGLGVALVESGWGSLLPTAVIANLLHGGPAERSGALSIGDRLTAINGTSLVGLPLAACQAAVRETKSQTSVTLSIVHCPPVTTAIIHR

[22] = target: T10, RHPN1, Q8TCX5
T10 sequence (Q8TCX5 508-602, limits assumed, looked up): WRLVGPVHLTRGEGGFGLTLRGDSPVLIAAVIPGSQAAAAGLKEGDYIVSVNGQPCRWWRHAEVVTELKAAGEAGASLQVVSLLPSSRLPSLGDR

[23] = target: ARHGEF12, Q9NZN5-2
[24] = target: FRMPD2_3, Q68DX3
[25] = target: T11, HTRA4, P83105
T11 sequence (P83105 378-476, limits assumed, looked up): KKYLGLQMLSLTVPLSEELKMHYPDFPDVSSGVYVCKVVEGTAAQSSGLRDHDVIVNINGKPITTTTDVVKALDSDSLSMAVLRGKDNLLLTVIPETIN

[26] = target: LNX1_2, Q8TBB1
[27] = target: Inadl_6, Q8NI35
[28] = plain residues with an end cap or a label only (N-terminal biotin on a linker: ado-ado)
[29] = plain residues with an end cap or a label only (N-terminal biotin on a linker: ahx)
[30] = plain residues with an end cap or a label only (N-terminal biotin on a linker: (peg)3)

Sequence of LNX1_1, Q8TBB1 (Q8TBB1 261-371): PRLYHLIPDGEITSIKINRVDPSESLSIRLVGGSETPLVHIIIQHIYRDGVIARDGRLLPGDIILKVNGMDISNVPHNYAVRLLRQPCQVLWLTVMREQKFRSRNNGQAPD
Sequence of LNX1_2, Q8TBB1 (Q8TBB1 371-470): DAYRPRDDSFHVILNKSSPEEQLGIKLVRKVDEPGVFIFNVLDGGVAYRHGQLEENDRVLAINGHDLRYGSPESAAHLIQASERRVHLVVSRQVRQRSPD
Sequence of FRMPD2_3, Q68DX3 (Q68DX3 1073-1166): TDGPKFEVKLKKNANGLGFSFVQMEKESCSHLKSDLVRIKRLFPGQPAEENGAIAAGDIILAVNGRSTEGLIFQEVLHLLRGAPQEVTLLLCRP
Sequence of GRASP, Q7Z6J2 (Q7Z6J2 96-193): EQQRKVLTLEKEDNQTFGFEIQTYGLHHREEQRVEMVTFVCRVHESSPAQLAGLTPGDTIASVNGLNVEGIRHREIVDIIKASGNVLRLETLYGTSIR
Sequence of MAGI2_3, Q86UL8 (Q86UL8 600-682): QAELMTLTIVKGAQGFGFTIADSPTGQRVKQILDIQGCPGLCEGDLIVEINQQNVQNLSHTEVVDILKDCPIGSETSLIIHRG
Sequence of MAGI2_6, Q86UL8 (Q86UL8 1141-1229): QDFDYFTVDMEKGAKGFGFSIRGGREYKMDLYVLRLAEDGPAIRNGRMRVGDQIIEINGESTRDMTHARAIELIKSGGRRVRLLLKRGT
Sequence of FRMPD2_2, Q68DX3 (Q68DX3 944-1038): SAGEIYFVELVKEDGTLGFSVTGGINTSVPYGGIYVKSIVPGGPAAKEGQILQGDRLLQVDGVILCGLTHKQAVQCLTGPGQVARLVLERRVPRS
Sequence of FRMPD2_1, Q68DX3 (Q68DX3 770-861): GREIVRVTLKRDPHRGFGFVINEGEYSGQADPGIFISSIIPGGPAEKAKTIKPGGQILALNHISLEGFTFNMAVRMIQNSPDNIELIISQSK
Sequence of Inadl_6, Q8NI35 (Q8NI35 1058-1167): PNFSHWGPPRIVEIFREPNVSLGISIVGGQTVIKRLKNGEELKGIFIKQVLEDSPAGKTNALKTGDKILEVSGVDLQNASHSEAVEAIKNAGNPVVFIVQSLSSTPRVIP
Sequence of ARHGEF12, Q9NZN5-2 (Q9NZN5 other isoform, or with tags, fused parts or gaps): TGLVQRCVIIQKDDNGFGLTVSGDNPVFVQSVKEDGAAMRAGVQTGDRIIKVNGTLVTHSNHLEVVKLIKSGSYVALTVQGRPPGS
Sequence of GRIP2_4, Q9C0E4 (Q9C0E4 446-548): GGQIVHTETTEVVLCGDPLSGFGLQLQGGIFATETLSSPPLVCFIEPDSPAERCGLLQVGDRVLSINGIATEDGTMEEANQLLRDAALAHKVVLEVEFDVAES
Sequence of PDZRN4_1, Q6ZMN7 (Q6ZMN7 213-318): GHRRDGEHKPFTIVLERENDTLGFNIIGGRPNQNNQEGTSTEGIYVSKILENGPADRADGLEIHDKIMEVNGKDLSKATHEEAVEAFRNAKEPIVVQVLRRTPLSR
Sequence of NHERF4_4, Q86UT5 (Q86UT5 464-550): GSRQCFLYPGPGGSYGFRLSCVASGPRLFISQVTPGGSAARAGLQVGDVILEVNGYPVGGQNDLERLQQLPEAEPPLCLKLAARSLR
Sequence of Inadl_8, Q8NI35 (Q8NI35 1425-1530): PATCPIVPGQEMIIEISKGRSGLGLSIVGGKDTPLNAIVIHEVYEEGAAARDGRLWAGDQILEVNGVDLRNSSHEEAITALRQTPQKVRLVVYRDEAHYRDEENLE
Sequence of FRMPD4, Q14CM0 (Q14CM0 67-160): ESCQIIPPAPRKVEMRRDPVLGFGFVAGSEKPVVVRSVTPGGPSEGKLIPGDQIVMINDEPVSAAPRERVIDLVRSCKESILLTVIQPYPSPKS

B1: CACNG8, Q8WXS5 (peptide)
chain: NTLNRKTTPV
[1]; [28]
  pKd: 3.66
[2]; [28]
  pKd: 4.56
[3]; [28]
  pKd: 3.52
[4]; [28]
  pKd: 4.2
[5]; [28]
  pKd: below the threshold
[6]; [28]
  pKd: 3.85
[7]; [28]
  pKd: 4.9
[8]; [28]
  pKd: below the threshold
[9]; [28]
  pKd: below the threshold
[10]; [28]
  pKd: below the threshold
[11]; [28]
  pKd: below the threshold
[12]; [28]
  pKd: 3.85
[13]; [28]
  pKd: 3.63
[14]; [28]
  pKd: 3.75
[15]; [28]
  pKd: below the threshold
[16]; [28]
  pKd: below the threshold
[17]; [28]
  pKd: below the threshold
[18]; [28]
  pKd: below the threshold
[19]; [28]
  pKd: 4.22
[20]; [28]
  pKd: 3.99
[21]; [28]
  pKd: below the threshold
[22]; [28]
  pKd: below the threshold
[23]; [28]
  pKd: 4.05
[24]; [28]
  pKd: below the threshold
[25]; [28]
  pKd: 3.94
[26]; [28]
  pKd: below the threshold
[27]; [28]
  pKd: below the threshold

B2: PTGIR, P43119 (peptide)
chain: AEASVACSLC
[1]; [28]
  pKd: below the threshold
[2]; [28]
  pKd: 4.47
[3]; [28]
  pKd: below the threshold
[4]; [28]
  pKd: 3.77
[5]; [28]
  pKd: 3.75
[6]; [28]
  pKd: below the threshold
[7]; [28]
  pKd: 3.49
[8]; [28]
  pKd: below the threshold
[9]; [28]
  pKd: below the threshold
[10]; [28]
  pKd: below the threshold
[11]; [28]
  pKd: below the threshold
[12]; [28]
  pKd: below the threshold
[13]; [28]
  pKd: below the threshold
[14]; [28]
  pKd: below the threshold
[15]; [28]
  pKd: below the threshold
[16]; [28]
  pKd: below the threshold
[17]; [28]
  pKd: below the threshold
[18]; [28]
  pKd: below the threshold
[19]; [28]
  pKd: 4.43
[20]; [28]
  pKd: below the threshold
[21]; [28]
  pKd: below the threshold
[22]; [28]
  pKd: below the threshold
[23]; [28]
  pKd: 3.53
[24]; [28]
  pKd: below the threshold
[25]; [28]
  pKd: below the threshold
[26]; [28]
  pKd: 3.68
[27]; [28]
  pKd: below the threshold

B3: FRMPD1, Q5SYB0 (peptide)
chain: TQKFRASTAL
[1]; [29]
  pKd: below the threshold
[2]; [29]
  pKd: 3.92
[3]; [29]
  pKd: below the threshold
[4]; [29]
  pKd: below the threshold
[5]; [29]
  pKd: below the threshold
[6]; [29]
  pKd: below the threshold
[7]; [29]
  pKd: below the threshold
[8]; [29]
  pKd: below the threshold
[9]; [29]
  pKd: below the threshold
[10]; [29]
  pKd: 3.77
[11]; [29]
  pKd: 3.73
[12]; [29]
  pKd: below the threshold
[13]; [29]
  pKd: 4.17
[14]; [29]
  pKd: below the threshold
[15]; [29]
  pKd: below the threshold
[16]; [29]
  pKd: below the threshold
[17]; [29]
  pKd: below the threshold
[18]; [29]
  pKd: below the threshold
[19]; [29]
  pKd: 4.56
[20]; [29]
  pKd: below the threshold
[21]; [29]
  pKd: below the threshold
[22]; [29]
  pKd: 3.79
[23]; [29]
  pKd: 4.79
[24]; [29]
  pKd: below the threshold
[25]; [29]
  pKd: below the threshold
[26]; [29]
  pKd: below the threshold
[27]; [29]
  pKd: below the threshold

B4: CACNG2, Q9Y698 (peptide)
chain: NTANRRTTPV
[1]; [28]
  pKd: below the threshold
[2]; [28]
  pKd: 4.19
[3]; [28]
  pKd: below the threshold
[4]; [28]
  pKd: 4.23
[5]; [28]
  pKd: below the threshold
[6]; [28]
  pKd: below the threshold
[7]; [28]
  pKd: 4.82
[8]; [28]
  pKd: below the threshold
[9]; [28]
  pKd: below the threshold
[10]; [28]
  pKd: below the threshold
[11]; [28]
  pKd: below the threshold
[12]; [28]
  pKd: 3.59
[13]; [28]
  pKd: below the threshold
[14]; [28]
  pKd: below the threshold
[15]; [28]
  pKd: below the threshold
[16]; [28]
  pKd: 3.53
[17]; [28]
  pKd: below the threshold
[18]; [28]
  pKd: below the threshold
[19]; [28]
  pKd: 4.18
[20]; [28]
  pKd: below the threshold
[21]; [28]
  pKd: below the threshold
[22]; [28]
  pKd: below the threshold
[23]; [28]
  pKd: 3.93
[24]; [28]
  pKd: below the threshold
[25]; [28]
  pKd: below the threshold
[26]; [28]
  pKd: below the threshold
[27]; [28]
  pKd: below the threshold

B5: HBV-HBc, P03193 (peptide)
chain: RRRRSQSRESQC
[1]; [30]
  pKd: below the threshold
[2]; [30]
  pKd: below the threshold
[3]; [30]
  pKd: below the threshold
[4]; [30]
  pKd: 3.58
[5]; [30]
  pKd: 3.86
[6]; [30]
  pKd: below the threshold
[7]; [30]
  pKd: 4.18
[8]; [30]
  pKd: below the threshold
[9]; [30]
  pKd: below the threshold
[10]; [30]
  pKd: below the threshold
[11]; [30]
  pKd: below the threshold
[12]; [30]
  pKd: below the threshold
[13]; [30]
  pKd: below the threshold
[14]; [30]
  pKd: 4.21
[15]; [30]
  pKd: below the threshold
[16]; [30]
  pKd: below the threshold
[17]; [30]
  pKd: below the threshold
[18]; [30]
  pKd: below the threshold
[19]; [30]
  pKd: below the threshold
[20]; [30]
  pKd: below the threshold
[21]; [30]
  pKd: below the threshold
[22]; [30]
  pKd: below the threshold
[23]; [30]
  pKd: below the threshold
[24]; [30]
  pKd: below the threshold
[25]; [30]
  pKd: below the threshold
[26]; [30]
  pKd: below the threshold
[27]; [30]
  pKd: below the threshold
